# Legend:
# SEC = biological target: the molecule itself; assay: SEC
# HA-fused Atg1(593-830) = HA-fused Atg1(593-830) (S. pombe, UniProt Q9Y7T4 593-830); assay: pull-down
# Sequence of HA-fused Atg1(593-830) (Q9Y7T4 593-830): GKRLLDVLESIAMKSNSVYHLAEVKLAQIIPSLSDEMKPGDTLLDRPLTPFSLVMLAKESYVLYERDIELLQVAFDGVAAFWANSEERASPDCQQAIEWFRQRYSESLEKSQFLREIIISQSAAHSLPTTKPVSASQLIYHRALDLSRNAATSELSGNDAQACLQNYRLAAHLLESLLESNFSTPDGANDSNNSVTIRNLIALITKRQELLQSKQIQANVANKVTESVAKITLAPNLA
binding result (HA-fused Atg1(593-830)),Binder,stoichiometry N (SEC)
–,"MBP-Atg11(522-583) (domain or fragment, S. pombe, UniProt O14261 522-583, looked up) SSQPFYRVSPSIVPLNVIRKLTNRKTSFTDSHILRLQDEVNQLRNELDLVNKRNEDLLIELQ",2
binds,"SSQPFYRVSPSIVPLNVIRKLTN (domain or fragment, S. pombe, UniProt O14261 522-544, looked up) [GST-fused Atg11(522-544)]",–

# From article PMC7511232 (eLife, 2020)
